The target in assay [1] is human α2β1 integrin on human cells (platelets, leukocytes, HT1080) (human) (UniProt P17301). Nature of the assay: cell-based or functional assay.
Assay [2] has as its target TMC-2206. Description: fusion protein competing Eu-TMC-2206 off α2β1-coated plate.
Assay [3] addresses TMC-2206. Nature of the assay: ELISA, GST fusion protein on immobilized TMC-2206 (Kd apparent). On the technique in general: An ELISA detects its analyte on a solid surface through an enzyme-linked reagent.
Assay [4] addresses TMC-2206. Nature of the assay: ELISA, GST fusion protein on immobilized TMC-2206.
Assay [5] has as its target human platelet α2β1 integrin (immobilized on microtiter plates) (human) (UniProt P17301). Nature of the assay: competition with Eu-TMC-2206 on platelet α2β1-coated plates.
Assay [6] concerns the target TMC-2206. Description: ELISA, GST fusion protein on immobilized TMC-2206, Kd estimated from EC50.
The target of assay [7] is Humanized TMC-2206 (hIgG4/κ VH12.0/VL10.0Q). Nature of the assay: fusion protein competing Eu-humanized TMC-2206 off α2β1-coated plates.

10G11 (antibody) returned an EC50, adhesion of resting platelets to Type I collagen in assay [1] greater than 200 nM.

In the case of “GST-mα2 I domain H93Y (from UniProt Q62469 150-377)”, in the assay with TMC-2206 [2], the Ki (commonly a dissociation constant, usually derived from enzyme kinetics or from competition with a known ligand) came out at 20.2 nM and the fold decrease in potency relative to the wt human α2 I domain stood at 200 fold.

As for “GST-hα2 I domain Y77F (from UniProt P17301 153-368)”, in the assay with TMC-2206 [2], the Ki came out at 0.39 nM. Further, the Kd with TMC-2206 [3] was 0.22 nM.

With “GST-hα2 I domain Q105E (from UniProt P17301 153-368)”, in the assay with TMC-2206 [2], the Ki was 0.38 nM. Besides, the Kd in the assay with TMC-2206 [3] was found to be 0.15 nM.

Turning to “GST-hα2 I domain I21V (from UniProt P17301 153-368)”, the Ki in the assay with TMC-2206 [2] is 0.24 nM. The Kd in the assay with TMC-2206 [3] amounted to 0.28 nM.

In the case of “GST-hα2 I domain V70I (from UniProt P17301 153-368)”, the Ki with TMC-2206 [2] came to 0.86 nM. Further, the Kd with TMC-2206 [3] was 0.44 nM.

For “GST-hα2 I domain Y93H (from UniProt P17301 153-368)”, in the assay with TMC-2206 [4], the fold decrease in apparent affinity was found to be 23 fold. Also, the Kd in the assay with TMC-2206 [3] stood at 6.1 nM.

In assay [5], AK7 (antibody) came in with a Ki of 0.07 nM.

As to “GST-rat α2 I domain fusion protein (from UniProt Q62469 150-377)”, the Kd with TMC-2206 [6] is 0.54 nM. In assay [7], this substance came in with a Ki of 5.23 nM and a fold decrease in Ki compared to the human α2 I domain of 9 fold. Further, in the assay with TMC-2206 [2], the Ki was determined as 3.8 nM. In the assay with TMC-2206 [4], the fold shift in Kd compared to human α2 is 3 fold.

“GST-hα2 I domain Q48T (from UniProt P17301 153-368)” had a Ki with TMC-2206 [2] of 0.73 nM. In addition, the Kd with TMC-2206 [3] is 0.19 nM.

Regarding “GST-hα2 I domain V71I (from UniProt P17301 153-368)”, the Ki with TMC-2206 [2] was 0.83 nM. For the same substance, in the assay with TMC-2206 [3], the Kd was determined as 0.19 nM.

In the assay with TMC-2206 [2], “GST-hα2 I domain T76D (from UniProt P17301 153-368)” showed a Ki of 0.15 nM. Further, the Kd with TMC-2206 [3] was found to be 0.17 nM.

In the case of “GST-hα2 I domain E44V (from UniProt P17301 153-368)”, the Ki with TMC-2206 [2] worked out at 0.35 nM. Also, in the assay with TMC-2206 [3], the Kd is 0.23 nM.

Substance “GST-hα2 I domain N67E (from UniProt P17301 153-368)” had a Ki with TMC-2206 [2] of 0.4 nM. For the same substance, in the assay with TMC-2206 [3], the Kd was 0.28 nM.

The values are drawn from patent publication US20070128190A1.
